Measurements taken from patent publication US20250115953, “Methylcytosine-Selective Deaminases and Uses Thereof” (New England Biolabs, Inc., published 2025).
Read-outs that look alike come from different tables or passages of the source.

Experiments:
[1] = tested on: T1, B5 deaminase; conditions: LC/MS
T1 sequence: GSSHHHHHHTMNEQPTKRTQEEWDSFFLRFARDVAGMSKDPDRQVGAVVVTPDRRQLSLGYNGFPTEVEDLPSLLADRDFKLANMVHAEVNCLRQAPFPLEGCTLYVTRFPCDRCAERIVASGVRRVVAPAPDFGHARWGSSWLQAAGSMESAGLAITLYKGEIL

[2] = tested on: T1, B5 deaminase; conditions: all C replaced by 5mC; most preferred motif ATCAA; least GGCCC 22.51%
[3] = tested on: T2, H3 deaminase; conditions: all C replaced by 5mC; most preferred motif AACTT; least GGCCC 1.28%
T2 sequence: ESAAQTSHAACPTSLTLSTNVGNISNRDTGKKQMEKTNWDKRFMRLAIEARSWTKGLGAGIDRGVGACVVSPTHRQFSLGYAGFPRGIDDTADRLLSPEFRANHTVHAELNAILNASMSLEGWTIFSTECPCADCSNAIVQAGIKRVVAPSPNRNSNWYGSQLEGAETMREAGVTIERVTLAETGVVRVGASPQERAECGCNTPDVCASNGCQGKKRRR

[4] = tested on: T3, G12 deaminase; conditions: all C replaced by 5mC; most preferred motif TACGG; least GCCCC 0.90%
T3 sequence: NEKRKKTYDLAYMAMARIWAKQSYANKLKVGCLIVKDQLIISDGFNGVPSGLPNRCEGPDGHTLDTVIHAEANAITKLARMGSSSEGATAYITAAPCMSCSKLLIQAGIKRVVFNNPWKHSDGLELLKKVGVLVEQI

[5] = tested on: T4, E10 deaminase; conditions: all C replaced by 5mC; most preferred motif ATCAA; least GGCGC 11.58%
T4 sequence: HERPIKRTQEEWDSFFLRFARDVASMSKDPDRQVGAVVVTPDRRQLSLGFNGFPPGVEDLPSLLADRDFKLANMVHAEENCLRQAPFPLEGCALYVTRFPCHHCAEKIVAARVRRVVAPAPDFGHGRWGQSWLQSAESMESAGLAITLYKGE

[6] = tested on: T5, F7 deaminase; conditions: all C replaced by 5mC; most preferred motif GTCAG; least GGCCG 5.51%
T5 sequence: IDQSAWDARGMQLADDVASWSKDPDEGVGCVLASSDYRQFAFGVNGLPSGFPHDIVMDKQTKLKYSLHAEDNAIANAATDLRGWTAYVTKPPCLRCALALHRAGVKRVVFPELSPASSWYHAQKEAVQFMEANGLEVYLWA

[7] = tested on: T1, B5 deaminase
[8] = tested on: T1, B5 deaminase; conditions: Zn, 2-3 h
[9] = tested on: T6, PBCV-1 deaminase (Paramecium bursaria chlorella virus 1?); conditions: overnight
T6 sequence: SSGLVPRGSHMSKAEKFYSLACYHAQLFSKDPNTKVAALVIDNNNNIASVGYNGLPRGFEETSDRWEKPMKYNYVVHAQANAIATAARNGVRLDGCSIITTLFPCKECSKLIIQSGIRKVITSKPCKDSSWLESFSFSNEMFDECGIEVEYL

[10] = tested on: T4, E10 deaminase; conditions: 2-3 h
[11] = tested on: T5, F7 deaminase; conditions: Zn, 2-3 h
[12] = tested on: T1, B5 deaminase; conditions: 30 C 12 h, 6 uM enzyme
[13] = tested on: APOBEC
[14] = tested on: B4 deaminase; conditions: 5mC at position 17; solid support, overnight
[15] = biological target: T7, G10 deaminase; test: solid support, overnight; conditions: tags: immobilized on solid support; label: 5'-FAM
T7 chain: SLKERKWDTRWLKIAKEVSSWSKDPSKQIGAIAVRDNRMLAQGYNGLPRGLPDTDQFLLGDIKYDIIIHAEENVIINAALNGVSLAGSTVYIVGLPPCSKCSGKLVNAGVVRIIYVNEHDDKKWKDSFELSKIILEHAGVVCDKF

[16] = biological target: T8, 251 deaminase; test: solid support, overnight; conditions: tags: immobilized on solid support; label: 5'-FAM
T8 chain: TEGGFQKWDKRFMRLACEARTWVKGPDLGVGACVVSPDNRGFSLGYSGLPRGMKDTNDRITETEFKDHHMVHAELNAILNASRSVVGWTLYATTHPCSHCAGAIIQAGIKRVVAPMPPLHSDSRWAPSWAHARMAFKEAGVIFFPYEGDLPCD

[17] = biological target: T9, F12 deaminase; test: solid support, overnight; conditions: tags: immobilized on solid support; label: 5'-FAM
T9 chain: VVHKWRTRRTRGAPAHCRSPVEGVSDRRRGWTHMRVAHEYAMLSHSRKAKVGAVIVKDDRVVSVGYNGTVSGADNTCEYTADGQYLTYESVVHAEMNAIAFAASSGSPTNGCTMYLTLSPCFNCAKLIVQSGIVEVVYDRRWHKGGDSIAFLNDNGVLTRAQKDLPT

[18] = biological target: T10, 206 deaminase; test: solid support, overnight; conditions: tags: immobilized on solid support; label: 5'-FAM
T10 chain: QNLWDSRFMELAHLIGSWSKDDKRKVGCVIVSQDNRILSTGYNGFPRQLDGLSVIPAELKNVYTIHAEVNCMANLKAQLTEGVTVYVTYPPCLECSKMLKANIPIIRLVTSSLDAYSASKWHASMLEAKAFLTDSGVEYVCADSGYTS

[19] = biological target: T11, 252 deaminase; test: solid support, overnight; conditions: tags: immobilized on solid support; label: 5'-FAM
T11 chain: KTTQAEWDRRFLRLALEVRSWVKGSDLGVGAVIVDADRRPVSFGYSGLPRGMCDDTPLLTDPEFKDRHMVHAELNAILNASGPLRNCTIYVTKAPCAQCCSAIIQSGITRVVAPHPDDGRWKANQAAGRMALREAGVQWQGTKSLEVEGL

[20] = biological target: T12, H2 deaminase; test: solid support, overnight; conditions: tags: immobilized on solid support; label: 5'-FAM
T12 chain: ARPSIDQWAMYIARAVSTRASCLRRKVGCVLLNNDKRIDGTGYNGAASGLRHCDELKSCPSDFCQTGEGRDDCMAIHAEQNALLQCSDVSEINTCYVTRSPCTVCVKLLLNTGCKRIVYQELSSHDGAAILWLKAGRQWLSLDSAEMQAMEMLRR

[21] = biological target: T13, E12 deaminase; test: solid support, overnight; conditions: tags: immobilized on solid support; label: 5'-FAM
T13 chain: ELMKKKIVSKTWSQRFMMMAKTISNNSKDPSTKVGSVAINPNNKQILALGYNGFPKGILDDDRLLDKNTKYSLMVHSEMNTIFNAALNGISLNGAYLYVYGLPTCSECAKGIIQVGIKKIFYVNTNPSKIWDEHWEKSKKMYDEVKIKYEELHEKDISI

[22] = biological target: T14, PRW314; test: 1 h; conditions: label: 5'-FAM
T14 chain: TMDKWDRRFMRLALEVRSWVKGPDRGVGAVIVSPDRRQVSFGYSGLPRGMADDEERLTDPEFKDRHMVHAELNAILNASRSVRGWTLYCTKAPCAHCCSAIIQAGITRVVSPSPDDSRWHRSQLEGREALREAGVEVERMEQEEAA

[23] = biological target: T15, PRW313; test: 1 h; conditions: label: 5'-FAM
T15 chain: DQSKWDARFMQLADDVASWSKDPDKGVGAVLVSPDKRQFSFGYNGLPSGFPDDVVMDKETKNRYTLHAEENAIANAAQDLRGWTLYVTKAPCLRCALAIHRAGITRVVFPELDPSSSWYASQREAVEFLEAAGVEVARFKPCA

[24] = biological target: T16, PRW311; test: 1 h; conditions: label: 5'-FAM
T16 chain: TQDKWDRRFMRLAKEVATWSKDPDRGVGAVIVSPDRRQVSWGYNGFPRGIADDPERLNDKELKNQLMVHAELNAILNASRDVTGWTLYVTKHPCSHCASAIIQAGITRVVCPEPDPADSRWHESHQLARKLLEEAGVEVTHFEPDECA

[25] = biological target: T17, PRW294; test: 1 h; conditions: label: 5'-FAM
T17 chain: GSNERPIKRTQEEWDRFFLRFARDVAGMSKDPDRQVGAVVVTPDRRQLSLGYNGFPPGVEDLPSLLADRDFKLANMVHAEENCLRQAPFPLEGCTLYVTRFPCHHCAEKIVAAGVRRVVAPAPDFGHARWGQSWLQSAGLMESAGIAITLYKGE

In the case of ssDNA oligo with 5caC (Table 6), the activity (% deamination) ([1]; 5caC) is reported as 2.

Work on ssDNA oligo with 5gmC (Table 6) yielded an activity (% deamination) ([1]; 5gmC) of 2.

XP12 genomic DNA, denatured gave an activity (% deamination) [2] of 74.6, an activity (% deamination) [3] of 11.3 and an activity (% deamination) [4] of 12.7. For the same molecule, the activity (% deamination) [5] was 40.9, the activity (% deamination) [6] was 22 and the activity (% deamination) ([7]; all C replaced by 5mC, NaOH and heat denatured) was 35.

lambda genomic DNA, native was tested, and the activity (% deamination) ([7]; not denatured) was 3.

For T4gt genomic DNA, denatured, the activity (% deamination) ([7]; all C replaced by 5hmC, NaOH and heat denatured) was 27.

In the case of “ATACACCGATGCAGAACTCATGGGCTTACGC [FAM C oligo 4]”, the activity (% deamination) [8] is reported as 4, the activity (% deamination) [9] is reported as 7 and the activity (% deamination) [10] is reported as 3. The activity (% deamination) [11] was 12.

“TGTCCGATAGACTCTACGCA [5hmC-oligo (Oligo 1)]” showed an activity (% 5hmC to 5hmU) ([12]; 5hmC at position 14, DpnII buffer, LC/MS, unmodified C 0.90%) of 35 and an activity (% 5hmC to 5hmU) ([13]; 5hmC at position 14, unmodified C 100%) of 100.

ssDNA oligo with 5fC (Table 6) was tested, and the activity (% deamination) ([1]; 5fC) was 2.

In the case of T4 genomic DNA, native, the activity (% deamination) ([7]; 5gmC (glucosylated 5hmC), not denatured) is reported as 3.

ssDNA oligo with 5mC (Table 6) showed an activity (% deamination) ([1]; 5mC) of 53.

T4gt genomic DNA, native was tested, and the activity (% deamination) ([7]; all C replaced by 5hmC, not denatured) was 9.

T4 genomic DNA, denatured gave an activity (% deamination) ([7]; 5gmC (glucosylated 5hmC), NaOH and heat denatured) of 6.

In the case of “ATACACCGATGCAGAACTCATGGGCTTACGC [FAM 5mC oligo 1]”, the activity (% deamination) ([8]; 5mC at position 17, EcoRI/CE assay, 42 C, Bis-Tris pH 6.5, 36% in FIG. 7B and when on Ni beads) is reported as 74, the activity (% deamination) ([9]; 5mC at position 17, 42 C, Bis-Tris pH 6.5) is reported as 51 and the activity (% deamination) [14] is reported as 3. For the same molecule, the activity (% deamination) ([10]; 5mC at position 17, highest measured (6-7% in FIG. 7C/D)) was 54 and the activity (% deamination) ([11]; 5mC at position 17) was 72.

With ssDNA oligo C (Table 6) the activity (% deamination) ([1]; average) was 2.

In the case of ssDNA oligo with 5hmC (Table 6), the activity (% deamination) ([1]; 5hmC) is reported as 36.

“TGTCCGATAGACTCTACGCA [5mC-oligo (Oligo 2)]” was tested, and the activity ([12]; 5mC at position 14, unmodified C 2.80%) was 21.1 % 5mC to T and the activity ([13]; 5mC at position 14, unmodified C 94.1%) was 100 % 5mC to T.

XP12 genomic DNA, native showed an activity (% deamination) ([7]; all C replaced by 5mC, not denatured) of 4.

Work on lambda genomic DNA, denatured yielded an activity (% deamination) ([7]; NaOH and heat denatured) of 6.

B1: FAM 5mC oligo 1 (ssDNA)
DNA: ATACACCGATGCAGAACTCATGGGCTTACGC
modifications: 5mC at position 17
B1 was tested, and the activity [15] was 4.5 % deamination, the activity [16] was 66 % deamination and the activity [17] was 10 % deamination. For the same molecule, the activity [18] was 50 % deamination, the activity [19] was 12 % deamination and the activity [20] was 7 % deamination. For the same molecule, the activity [21] was 5 % deamination, the activity [22] was 90 % deamination and the activity [23] was 90 % deamination. For the same molecule, the activity [24] was 69 % deamination and the activity [25] was 73 % deamination.

B2: FAM C oligo 4 (ssDNA)
DNA: B1 DNA
Molecule B2 has an activity [15] of 2.6 % deamination, an activity [22] of 13 % deamination and an activity [23] of 11 % deamination.
